{"source": "the Human Domainome abundance scans (Beltran et al. 2025)", "parents": {"B1": {"name": "GA-binding protein alpha chain, residues 172 to 250; numbered along this chain, Q06546 (parent)", "chain": "GYRKEQERLGIPYDPIQWSTDQVLHWVVWVMKEFSMTDIDLTTLNISGRELCSLNQEDFFQRVPRGEILWSHLELLRKY"}}, "note": "± gives the uncertainty stated by the source.", "data": [{"variants_of": "B1", "test": "abundance fitness (aPCA) (normalised: wild type 0, dead -1); higher = more abundant; growth selection in yeast, the domain comes from the species named", "details": "Homo sapiens", "values": [{"variant": "GYRKEQERLGIPYLPIQWSTDQVLHWVVWVMKEFSMTDIDLTTLNISGRELCSLNQEDFFQRVPRGEILWSHLELLRKY", "abundance fitness": "-0.766 ± 0.061"}, {"variant": "GYRKEQERLGIPYMPIQWSTDQVLHWVVWVMKEFSMTDIDLTTLNISGRELCSLNQEDFFQRVPRGEILWSHLELLRKY", "abundance fitness": "-0.784 ± 0.081"}, {"variant": "GYRKEQERLGIPYCPIQWSTDQVLHWVVWVMKEFSMTDIDLTTLNISGRELCSLNQEDFFQRVPRGEILWSHLELLRKY", "abundance fitness": "-0.393 ± 0.048"}, {"variant": "GYRKEQERLGIPYVPIQWSTDQVLHWVVWVMKEFSMTDIDLTTLNISGRELCSLNQEDFFQRVPRGEILWSHLELLRKY", "abundance fitness": "-0.856 ± 0.071"}, {"variant": "GYRKEQERLGIPYAPIQWSTDQVLHWVVWVMKEFSMTDIDLTTLNISGRELCSLNQEDFFQRVPRGEILWSHLELLRKY", "abundance fitness": "-0.369 ± 0.043"}, {"variant": "GYRKEQERLGIPYEPIQWSTDQVLHWVVWVMKEFSMTDIDLTTLNISGRELCSLNQEDFFQRVPRGEILWSHLELLRKY", "abundance fitness": "-0.15 ± 0.049"}, {"variant": "GYRKEQERLGIPYNPIQWSTDQVLHWVVWVMKEFSMTDIDLTTLNISGRELCSLNQEDFFQRVPRGEILWSHLELLRKY", "abundance fitness": "-0.072 ± 0.06"}, {"variant": "GYRKEQERLGIPYYPIQWSTDQVLHWVVWVMKEFSMTDIDLTTLNISGRELCSLNQEDFFQRVPRGEILWSHLELLRKY", "abundance fitness": "-0.57 ± 0.11"}, {"variant": "GYRKEQERLGIPYKPIQWSTDQVLHWVVWVMKEFSMTDIDLTTLNISGRELCSLNQEDFFQRVPRGEILWSHLELLRKY", "abundance fitness": "-0.793 ± 0.23"}, {"variant": "GYRKEQERLGIPYWPIQWSTDQVLHWVVWVMKEFSMTDIDLTTLNISGRELCSLNQEDFFQRVPRGEILWSHLELLRKY", "abundance fitness": "-0.651 ± 0.055"}, {"variant": "GYRKEQERLGIPYGPIQWSTDQVLHWVVWVMKEFSMTDIDLTTLNISGRELCSLNQEDFFQRVPRGEILWSHLELLRKY", "abundance fitness": "-0.805 ± 0.049"}, {"variant": "GYRKEQERLGIPYIPIQWSTDQVLHWVVWVMKEFSMTDIDLTTLNISGRELCSLNQEDFFQRVPRGEILWSHLELLRKY", "abundance fitness": "-0.94 ± 0.15"}, {"variant": "GYRKEQERLGIPYQPIQWSTDQVLHWVVWVMKEFSMTDIDLTTLNISGRELCSLNQEDFFQRVPRGEILWSHLELLRKY", "abundance fitness": "-0.344 ± 0.08"}, {"variant": "GYRKEQERLGIPYTPIQWSTDQVLHWVVWVMKEFSMTDIDLTTLNISGRELCSLNQEDFFQRVPRGEILWSHLELLRKY", "abundance fitness": "-0.868 ± 0.24"}, {"variant": "GYRKEQERLGIPYFPIQWSTDQVLHWVVWVMKEFSMTDIDLTTLNISGRELCSLNQEDFFQRVPRGEILWSHLELLRKY", "abundance fitness": "-1.01 ± 0.18"}, {"variant": "GYRKEQERLGIPYHPIQWSTDQVLHWVVWVMKEFSMTDIDLTTLNISGRELCSLNQEDFFQRVPRGEILWSHLELLRKY", "abundance fitness": "-0.147 ± 0.078"}, {"variant": "GYRKEQERLGIPYRPIQWSTDQVLHWVVWVMKEFSMTDIDLTTLNISGRELCSLNQEDFFQRVPRGEILWSHLELLRKY", "abundance fitness": "-0.954 ± 0.064"}, {"variant": "GYRKEQERLGIPYPPIQWSTDQVLHWVVWVMKEFSMTDIDLTTLNISGRELCSLNQEDFFQRVPRGEILWSHLELLRKY", "abundance fitness": "-0.596 ± 0.066"}, {"variant": "GYRKEQERLGIPYSPIQWSTDQVLHWVVWVMKEFSMTDIDLTTLNISGRELCSLNQEDFFQRVPRGEILWSHLELLRKY", "abundance fitness": "-0.205 ± 0.036"}, {"variant": "GYRKEQERLGIPPDPIQWSTDQVLHWVVWVMKEFSMTDIDLTTLNISGRELCSLNQEDFFQRVPRGEILWSHLELLRKY", "abundance fitness": "-0.058 ± 0.049"}, {"variant": "GYRKEQERLGIPLDPIQWSTDQVLHWVVWVMKEFSMTDIDLTTLNISGRELCSLNQEDFFQRVPRGEILWSHLELLRKY", "abundance fitness": "-0.014 ± 0.036"}, {"variant": "GYRKEQERLGIPMDPIQWSTDQVLHWVVWVMKEFSMTDIDLTTLNISGRELCSLNQEDFFQRVPRGEILWSHLELLRKY", "abundance fitness": "0.012 ± 0.062"}, {"variant": "GYRKEQERLGIPNDPIQWSTDQVLHWVVWVMKEFSMTDIDLTTLNISGRELCSLNQEDFFQRVPRGEILWSHLELLRKY", "abundance fitness": "0.006 ± 0.11"}, {"variant": "GYRKEQERLGIPVDPIQWSTDQVLHWVVWVMKEFSMTDIDLTTLNISGRELCSLNQEDFFQRVPRGEILWSHLELLRKY", "abundance fitness": "-0.109 ± 0.032"}, {"variant": "GYRKEQERLGIPQDPIQWSTDQVLHWVVWVMKEFSMTDIDLTTLNISGRELCSLNQEDFFQRVPRGEILWSHLELLRKY", "abundance fitness": "-0.048 ± 0.06"}, {"variant": "GYRKEQERLGIPTDPIQWSTDQVLHWVVWVMKEFSMTDIDLTTLNISGRELCSLNQEDFFQRVPRGEILWSHLELLRKY", "abundance fitness": "-0.152 ± 0.087"}, {"variant": "GYRKEQERLGIPKDPIQWSTDQVLHWVVWVMKEFSMTDIDLTTLNISGRELCSLNQEDFFQRVPRGEILWSHLELLRKY", "abundance fitness": "-0.024 ± 0.063"}, {"variant": "GYRKEQERLGIPSDPIQWSTDQVLHWVVWVMKEFSMTDIDLTTLNISGRELCSLNQEDFFQRVPRGEILWSHLELLRKY", "abundance fitness": "-0.029 ± 0.039"}, {"variant": "GYRKEQERLGIPYDFIQWSTDQVLHWVVWVMKEFSMTDIDLTTLNISGRELCSLNQEDFFQRVPRGEILWSHLELLRKY", "abundance fitness": "-0.717 ± 0.094"}, {"variant": "GYRKEQERLGIPYDHIQWSTDQVLHWVVWVMKEFSMTDIDLTTLNISGRELCSLNQEDFFQRVPRGEILWSHLELLRKY", "abundance fitness": "-0.813 ± 0.23"}, {"variant": "GYRKEQERLGIPYDNIQWSTDQVLHWVVWVMKEFSMTDIDLTTLNISGRELCSLNQEDFFQRVPRGEILWSHLELLRKY", "abundance fitness": "-0.606 ± 0.11"}, {"variant": "GYRKEQERLGIPYDRIQWSTDQVLHWVVWVMKEFSMTDIDLTTLNISGRELCSLNQEDFFQRVPRGEILWSHLELLRKY", "abundance fitness": "-0.56 ± 0.04"}, {"variant": "GYRKEQERLGIPYDMIQWSTDQVLHWVVWVMKEFSMTDIDLTTLNISGRELCSLNQEDFFQRVPRGEILWSHLELLRKY", "abundance fitness": "-0.635 ± 0.11"}, {"variant": "GYRKEQERLGIPYDWIQWSTDQVLHWVVWVMKEFSMTDIDLTTLNISGRELCSLNQEDFFQRVPRGEILWSHLELLRKY", "abundance fitness": "-1.09 ± 0.15"}]}]}
